Test results published in publication PMC10338342 (2023).

Assays:
[1] = target: T1, nucleosome core particle: human histone octamer (H2A, H2B, H3.1, H4) wrapped by DNA (human, UniProt P04908 1-130; P06899 1-126; P68431 1-136; P62805 1-103); experiment: FRET; NCP SHL-6.2; competition with His-MYC-MAX (800 nM)
[2] = target: T1, nucleosome core particle: human histone …; experiment: FRET; NCP SHL+5.8; competition with His-MYC-MAX (625 nM)

| IC50 [1] [nM] | IC50 [2] [nM] | Binder |
| --- | --- | --- |
| > 3000 |  | CLOCK-BMAL1 bHLH PAS-AB heterodimer with BMAL1 R173A (complex) chain 1: VEEDDKDKAKRVSRNKSEKKRRDQFNVLIKELGSMLPGNARKMDKSTVLQKSIDFLRKHKETTAQSDASEIRQDWKPTFLSNEEFTQLMLEALDGFFLAIMTDGSIIYVSESVTSLLEHLPSDLVDQSIFNFIPEGEHSEVYKILSTHLLESDSLTPEYLKSKNQLEFCCHMLRGTIDPKEPSTYEYVRFIGNFKSLTSVSTSTHNGFEGTIQRTHRPSYEDRVCFVATVRLATPQFIKEMCTVEEPNEEFTSRHSLEWKFLFLDHRAPPIIGYLPFEVLGTSGYDYYHVDDLENLAKCHEHLMQYGKGKSCYYRFLTKGQQWIWLQTHYYITYHQWNSRPEFIVCTHTVVSYAEVRAERRRELGIEESL chain 2: not shown |
| 1180 | 2320 | CLOCK-BMAL1 bHLH PAS-AB heterodimer (complex) chain 1: VEEDDKDKAKRVSRNKSEKKRRDQFNVLIKELGSMLPGNARKMDKSTVLQKSIDFLRKHKETTAQSDASEIRQDWKPTFLSNEEFTQLMLEALDGFFLAIMTDGSIIYVSESVTSLLEHLPSDLVDQSIFNFIPEGEHSEVYKILSTHLLESDSLTPEYLKSKNQLEFCCHMLRGTIDPKEPSTYEYVRFIGNFKSLTSVSTSTHNGFEGTIQRTHRPSYEDRVCFVATVRLATPQFIKEMCTVEEPNEEFTSRHSLEWKFLFLDHRAPPIIGYLPFEVLGTSGYDYYHVDDLENLAKCHEHLMQYGKGKSCYYRFLTKGQQWIWLQTHYYITYHQWNSRPEFIVCTHTVVSYAEVRAERRRELGIEESL chain 2: not shown |
| > 3000 |  | CLOCK-BMAL1 bHLH PAS-AB heterodimer with BMAL1 Q385A (complex) chain 1: VEEDDKDKAKRVSRNKSEKKRRDQFNVLIKELGSMLPGNARKMDKSTVLQKSIDFLRKHKETTAQSDASEIRQDWKPTFLSNEEFTQLMLEALDGFFLAIMTDGSIIYVSESVTSLLEHLPSDLVDQSIFNFIPEGEHSEVYKILSTHLLESDSLTPEYLKSKNQLEFCCHMLRGTIDPKEPSTYEYVRFIGNFKSLTSVSTSTHNGFEGTIQRTHRPSYEDRVCFVATVRLATPQFIKEMCTVEEPNEEFTSRHSLEWKFLFLDHRAPPIIGYLPFEVLGTSGYDYYHVDDLENLAKCHEHLMQYGKGKSCYYRFLTKGQQWIWLQTHYYITYHQWNSRPEFIVCTHTVVSYAEVRAERRRELGIEESL chain 2: not shown |
